From IntAct's records for PubMed 14528310

Target: Homer1, Q9Z214-1
Sequence (Q9Z214 whole entry): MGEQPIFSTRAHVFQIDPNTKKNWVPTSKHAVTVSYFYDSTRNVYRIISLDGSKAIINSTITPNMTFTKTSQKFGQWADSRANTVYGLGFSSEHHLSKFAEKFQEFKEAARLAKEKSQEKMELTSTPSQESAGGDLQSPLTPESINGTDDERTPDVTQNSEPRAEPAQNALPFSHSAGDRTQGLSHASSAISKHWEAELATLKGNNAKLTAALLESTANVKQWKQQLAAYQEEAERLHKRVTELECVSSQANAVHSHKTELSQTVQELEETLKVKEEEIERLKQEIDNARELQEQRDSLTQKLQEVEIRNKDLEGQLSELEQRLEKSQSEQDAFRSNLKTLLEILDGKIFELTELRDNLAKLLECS

effect of a mutation on the interaction: disrupting interaction
Substance: Arf-GAP with GTPase, ANK repeat and PH domain-containing protein 2 (Rattus norvegicus (Rat)), Q8CGU4 P187L
